Where two headings read alike, the source gives them in different places.
How the values were obtained:
Format in all cases: binding
[1] = tested on: gRNA of HCoV-OC43; details: for target (spectral count, OC43 Probe I RNP capture) / background (spectral count, no-probe control): type n_48_v: 48 hours post-infection; for target (spectral count, OC43 Probe I RNP capture): infected cells, unweighted spectral count; for background (spectral count, no-probe control): no-probe control on infected cells; for target (spectral count) / background (spectral count): type g_36_m, 36 hpi, Probe I; for target (spectral count): HCoV-OC43-infected HCT-8 cells; for background (spectral count): uninfected-probe control
[2] = tested on: HCoV-OC43 gRNA and sgRNA; details: for target (unweighted spectral count): OC43 Probe II, infected cells; for target (unweighted spectral count) / target (unweighted spectral count, OC43 Probe II capture): tested against no-probe control; for target (unweighted spectral count, OC43 Probe II) / background (unweighted spectral count, no-probe control): type n_48_v, 48 hpi; for target (unweighted spectral count, OC43 Probe II): OC43 Probe II capture on infected cells; for background (unweighted spectral count, no-probe control): no-probe control on infected cells; for target (unweighted spectral count, OC43 Probe II capture): FDR<10%; for target (spectral count) / background (spectral count): type s_36_m, Probe II; for target (spectral count): HCoV-OC43-infected HCT-8 cells; for background (spectral count): uninfected-probe control
[3] = tested on: SARS-CoV-2 gRNA; details: for target (unweighted spectral count of the protein in the RNP capture): LC-MS/MS, Probe I sample (first 199 lines of Table 2); for target (unweighted spectral count in RNP capture): Probe I capture, LC-MS/MS LFQ; for background (unweighted spectral count in control): no-probe control pull-down, used as background for Probe I

B1: HNRNPD (protein, UniProt Q14103 2-355, looked up)
Heterogeneous nuclear …: SEEQFGGDGAAAAATAAVGGSAGEQEGAMVAATQGAAAAAGSGAGTGGGTASGGTEGGSAESEGAKIDASKNEEDEGHSNSSPRHSEAATAQREEWKMFIGGLSWDTTKKDLKDYFSKFGEVVDCTLKLDPITGRSRGFGFVLFKESESVDKVMDQKEHKLNGKVIDPKRAKAMKTKEPVKKIFVGGLSPDTPEEKIREYFGGFGEVESIELPMDNKTNKRRGFCFITFKEEEPVKKIMEKKYHNVGLSKCEIKVAMSKEQYQQQQQWGSRGGFAGRARGRGGGPSQNWNQGYSNYWNQGYGNYGYNSQGYGGYGGYDYTGYNNYYGYGDYSNQQSGYGKVSRRGGHQNSYKPY
target (spectral count, OC43 Probe I RNP capture) [1]: 26
background (spectral count, no-probe control) [1]: 2
target (unweighted spectral count) ([2]; 24 hpi (type n_24_v)): 17
target (unweighted spectral count, OC43 Probe II) [2]: 36
background (unweighted spectral count, no-probe control) [2]: 2
target (unweighted spectral count of the protein in the RNP capture) [3]: 37

B2: FBL: host protein, UniProt P22087 (protein, UniProt P22087 1-321, looked up)
rRNA 2'-O-methyltransferase …: MKPGFSPRGGGFGGRGGFGDRGGRGGRGGFGGGRGRGGGFRGRGRGGGGGGGGGGGGGRGGGGFHSGGNRGRGRGGKRGNQSGKNVMVEPHRHEGVFICRGKEDALVTKNLVPGESVYGEKRVSISEGDDKIEYRAWNPFRSKLAAAILGGVDQIHIKPGAKVLYLGAASGTTVSHVSDIVGPDGLVYAVEFSHRSGRDLINLAKKRTNIIPVIEDARHPHKYRMLIAMVDVIFADVAQPDQTRIVALNAHTFLRNGGHFVISIKANCIDSTASAEAVFASEVKKMQQENMKPQEQLTLEPYERDHAVVVGVYRPPPKVKN
target (spectral count) [1]: 10
background (spectral count) [1]: 1
target (spectral count, OC43 Probe I RNP capture) [1]: 9
background (spectral count, no-probe control) [1]: 2
target (unweighted spectral count, OC43 Probe II capture) ([2]; 24 hpi, type n_24_v): 4
target (unweighted spectral count, OC43 Probe II capture) ([2]; 36 hpi, type n_36_v): 11
target (spectral count) ([2]; 36 hpi): 11
background (spectral count) ([2]; 36 hpi): 1
target (unweighted spectral count of the protein in the RNP capture) [3]: 5

B3: SRSF5: host protein, UniProt Q13243 (protein, UniProt Q13243 1-272, looked up)
Serine/arginine-rich splicing …: MSGCRVFIGRLNPAAREKDVERFFKGYGRIRDIDLKRGFGFVEFEDPRDADDAVYELDGKELCSERVTIEHARARSRGGRGRGRYSDRFSSRRPRNDRRNAPPVRTENRLIVENLSSRVSWQDLKDFMRQAGEVTFADAHRPKLNEGVVEFASYGDLKNAIEKLSGKEINGRKIKLIEGSKRHSRSRSRSRSRTRSSSRSRSRSRSRSRKSYSRSRSRSRSRSRSKSRSVSRSPVPEKSQKRGSSSRSKSPASVDRQRSRSRSRSRSVDSGN
target (spectral count) [1]: 8
background (spectral count) [1]: 1
target (unweighted spectral count, OC43 Probe II capture) ([2]; 24 hpi, type n_24_v): 4
target (unweighted spectral count, OC43 Probe II capture) ([2]; 36 hpi, type n_36_v): 10
target (unweighted spectral count, OC43 Probe II) [2]: 12
background (unweighted spectral count, no-probe control) [2]: 2
target (unweighted spectral count in RNP capture) [3]: 5
background (unweighted spectral count in control) [3]: 1

B4: PUF60: host protein, UniProt Q9UHX1 (protein, UniProt Q9UHX1 1-559, looked up)
Poly(U)-binding-splicing …: MATATIALQVNGQQGGGSEPAAAAAVVAAGDKWKPPQGTDSIKMENGQSTAAKLGLPPLTPEQQEALQKAKKYAMEQSIKSVLVKQTIAHQQQQLTNLQMAAVTMGFGDPLSPLQSMAAQRQRALAIMCRVYVGSIYYELGEDTIRQAFAPFGPIKSIDMSWDSVTMKHKGFAFVEYEVPEAAQLALEQMNSVMLGGRNIKVGRPSNIGQAQPIIDQLAEEARAFNRIYVASVHQDLSDDDIKSVFEAFGKIKSCTLARDPTTGKHKGYGFIEYEKAQSSQDAVSSMNLFDLGGQYLRVGKAVTPPMPLLTPATPGGLPPAAAVAAAAATAKITAQEAVAGAAVLGTLGTPGLVSPALTLAQPLGTLPQAVMAAQAPGVITGVTPARPPIPVTIPSVGVVNPILASPPTLGLLEPKKEKEEEELFPESERPEMLSEQEHMSISGSSARHMVMQKLLRKQESTVMVLRNMVDPKDIDDDLEGEVTEECGKFGAVNRVIIYQEKQGEEEDAEIIVKIFVEFSIASETHKAIQALNGRWFAGRKVVAEVYDQERFDNSDLSA
target (spectral count, OC43 Probe I RNP capture) [1]: 9
background (spectral count, no-probe control) [1]: 1
target (unweighted spectral count, OC43 Probe II capture) ([2]; 36 hpi, type n_36_v): 7
target (unweighted spectral count, OC43 Probe II) [2]: 7
background (unweighted spectral count, no-probe control) [2]: 1
target (spectral count) ([2]; 36 hpi): 7
background (spectral count) ([2]; 36 hpi): 1
target (unweighted spectral count of the protein in the RNP capture) [3]: 7

B5: HNRNPUL1: host protein, UniProt Q9BU32 (protein, UniProt Q9BUJ2 1-856, looked up)
Heterogeneous nuclear …: MDVRRLKVNELREELQRRGLDTRGLKAELAERLQAALEAEEPDDERELDADDEPGRPGHINEEVETEGGSELEGTAQPPPPGLQPHAEPGGYSGPDGHYAMDNITRQNQFYDTQVIKQENESGYERRPLEMEQQQAYRPEMKTEMKQGAPTSFLPPEASQLKPDRQQFQSRKRPYEENRGRGYFEHREDRRGRSPQPPAEEDEDDFDDTLVAIDTYNCDLHFKVARDRSSGYPLTIEGFAYLWSGARASYGVRRGRVCFEMKINEEISVKHLPSTEPDPHVVRIGWSLDSCSTQLGEEPFSYGYGGTGKKSTNSRFENYGDKFAENDVIGCFADFECGNDVELSFTKNGKWMGIAFRIQKEALGGQALYPHVLVKNCAVEFNFGQRAEPYCSVLPGFTFIQHLPLSERIRGTVGPKSKAECEILMMVGLPAAGKTTWAIKHAASNPSKKYNILGTNAIMDKMRVMGLRRQRNYAGRWDVLIQQATQCLNRLIQIAARKKRNYILDQTNVYGSAQRRKMRPFEGFQRKAIVICPTDEDLKDRTIKRTDEEGKDVPDHAVLEMKANFTLPDVGDFLDEVLFIELQREEADKLVRQYNEEGRKAGPPPEKRFDNRGGGGFRGRGGGGGFQRYENRGPPGGNRGGFQNRGGGSGGGGNYRGGFNRSGGGGYSQNRWGNNNRDNNNSNNRGSYNRAPQQQPPPQQPPPPQPPPQQPPPPPSYSPARNPPGASTYNKNSNIPGSSANTSTPTVSSYSPPQPSYSQPPYNQGGYSQGYTAPPPPPPPPPAYNYGSYGGYNPAPYTPPPPPTAQTYPQPSYNQYQQYAQQWNQYYQNQGQWPPYYGNYDYGSYSGNTQGGTSTQ
target (spectral count) [1]: 13
background (spectral count) [1]: 2
target (spectral count, OC43 Probe I RNP capture) [1]: 11
background (spectral count, no-probe control) [1]: 1
target (unweighted spectral count) ([2]; 12 hpi (type n_12_v)): 4
target (unweighted spectral count) ([2]; 24 hpi (type n_24_v)): 8
target (unweighted spectral count, OC43 Probe II) [2]: 11
background (unweighted spectral count, no-probe control) [2]: 1
target (unweighted spectral count in RNP capture) [3]: 5
background (unweighted spectral count in control) [3]: 1

B6: GRSF1 (protein, UniProt Q12849 118-480, looked up)
G-rich sequence factor 1: SQESKTTYLEDLPPPPEYELAPSKLEEEVDDVFLIRAQGLPWSCTMEDVLNFFSDCRIRNGENGIHFLLNRDGKRRGDALIEMESEQDVQKALEKHRMYMGQRYVEVYEINNEDVDALMKSLQVKSSPVVNDGVVRLRGLPYSCNEKDIVDFFAGLNIVDITFVMDYRGRRKTGEAYVQFEEPEMANQALLKHREEIGNRYIEIFPSRRNEVRTHVGSYKGKKIASFPTAKYITEPEMVFEEHEVNEDIQPMTAFESEKEIELPKEVPEKLPEAADFGTTSSLHFVHMRGLPFQANAQDIINFFAPLKPVRITMEYSSSGKATGEADVHFETHEDAVAAMLKDRSHVHHRYIELFLNSCPKGK
target (unweighted spectral count, OC43 Probe II capture) ([2]; 24 hpi, type n_24_v): 4
target (unweighted spectral count of the protein in the RNP capture) [3]: 14

B7: RBMX (protein, UniProt P38159 1-391, looked up)
RNA-binding motif protein, X …: MVEADRPGKLFIGGLNTETNEKALEAVFGKYGRIVEVLLMKDRETNKSRGFAFVTFESPADAKDAARDMNGKSLDGKAIKVEQATKPSFESGRRGPPPPPRSRGPPRGLRGGRGGSGGTRGPPSRGGHMDDGGYSMNFNMSSSRGPLPVKRGPPPRSGGPPPKRSAPSGPVRSSSGMGGRAPVSRGRDSYGGPPRREPLPSRRDVYLSPRDDGYSTKDSYSSRDYPSSRDTRDYAPPPRDYTYRDYGHSSSRDDYPSRGYSDRDGYGRDRDYSDHPSGGSYRDSYESYGNSRSAPPTRGPPPSYGGSSRYDDYSSSRDGYGGSRDSYSSSRSDLYSSGRDRVGRQERGLPPSMERGYPPPRDSYSSSSRGAPRGGGRGGSRSDRGGGRSRY
target (spectral count, OC43 Probe I RNP capture) [1]: 17
background (spectral count, no-probe control) [1]: 1
target (unweighted spectral count, OC43 Probe II capture) ([2]; 36 hpi, type n_36_v): 12
target (unweighted spectral count) ([2]; 12 hpi (type n_12_v)): 4
target (unweighted spectral count) ([2]; 24 hpi (type n_24_v)): 6
target (unweighted spectral count, OC43 Probe II) [2]: 20
background (unweighted spectral count, no-probe control) [2]: 1
target (unweighted spectral count of the protein in the RNP capture) [3]: 6

B8: POLDIP3: host protein, UniProt Q9BY77 (protein, UniProt Q9BY77 2-421, looked up)
Polymerase delta-interacting …: ADISLDELIRKRGAAAKGRLNARPGVGGVRSRVGIQQGLLSQSTRTATFQQRFDARQKIGLSDARLKLGVKDAREKLLQKDARFRIKGKVQDAREMLNSRKQQTTVPQKPRQVADAREKISLKRSSPAAFINPPIGTVTPALKLTKTIQVPQQKAMAPLHPHPAGMRINVVNNHQAKQNLYDLDEDDDGIASVPTKQMKFAASGGFLHHMAGLSSSKLSMSKALPLTKVVQNDAYTAPALPSSIRTKALTNMSRTLVNKEEPPKELPAAEPVLSPLEGTKMTVNNLHPRVTEEDIVELFCVCGALKRARLVHPGVAEVVFVKKDDAITAYKKYNNRCLDGQPMKCNLHMNGNVITSDQPILLRLSDSPSMKKESELPRRVNSASSSNPPAEVDPDTILKALFKSSGASVTTQPTEFKIKL
target (spectral count) [1]: 7
background (spectral count) [1]: 1
target (spectral count, OC43 Probe I RNP capture) [1]: 7
background (spectral count, no-probe control) [1]: 1
target (unweighted spectral count of the protein in the RNP capture) [3]: 5
